Key:
Human fibroblasts [1] = system: Human fibroblasts
Description: The analysis method followed the manufacturer's instructions.
Culture media each lacking an individual factor were prepared, and then culture was performed according to Example 1.1.
Then, culture was performed according to Example 1.1.

Human fibroblasts [2] = test: Laminin content in cell culture of single-cultured human fibroblasts (anti-human laminin antibody plate kit, absorbance 450 nm); conditions: 10 ng/mL epidermal growth factor added alone (Table 3 No. 2); FIG. 16
Description: To measure the amount of human laminin component in the extracellular matrix present in a culture obtained according to each example described below, quantitative analysis was conducted by using a commercially available analysis kit (TakaRa, MK107). The analysis method followed the manufacturer's instructions. Specifically, the culture was added onto a 96-well plate coated with an anti-human laminin antibody, followed by incubation. Thereafter, residues were washed off, and a chromogenic enzyme-conjugated specific antibody was added, followed by incubation. Then, quantitative analysis was conducted by measurement of the absorbance at 450 nm.
Human fibroblasts were seeded at a density of 3×10^5 cells per 150-mm^2 culture dish. […]
(§1) After being cultured according to Example 1.1.1, the cells were further cultured from day 8 using a serum-free/xeno-free culture medium [Dulbecco's Modified Eagle Medium: Ham's F-12 (1:1) supplemented with 100 (DMEM/F12) U/mL penicillin/streptomycin, 2 mM L-alanyl-L-glutamine, 5 μg/L selenium, 50 M ascorbate-2-phosphate, 10 mg/L insulin, 1 μM hydrocortisone, 0.02 nM triiodothyronine, 1 μM isoprenaline, and 10 μg/L epidermal growth factor] while the medium was exchanged at intervals of 2 to 3 days. […] The cell culture after collection was analyzed according to Example 3. […]

Human fibroblasts [3] = test: Total collagen content in cell culture of single-cultured human fibroblasts (Sirius Red kit, absorbance 530 nm); conditions: 10 ng/mL epidermal growth factor added alone (Table 3 No. 2); FIG. 17
Description: To measure the human collagen content in the extracellular matrix present in a culture obtained according to each example described below, quantitative analysis was conducted by utilizing a commercially available Sirius Red kit (Chondrex, #9062). The analysis method followed the manufacturer's instructions. Specifically, Sirius Red solution was added to the culture, followed by incubation, and the precipitated collagen was then mixed with an acidic solution and quantitatively analyzed by measurement of absorbance at 530 nm.
Human fibroblasts were seeded at a density of 3×10^5 cells per 150-mm^2 culture dish. The cells were cultured in high-glucose Dulbecco's Modified Eagle's Medium (DMEM) supplemented with 10% fetal bovine serum and 1% penicillin for 7 days while a growth medium was exchanged every 2-3 days.
as §1

B1: epidermal growth factor: growth factor / ErbB signaling factor added to the serum-free/xeno-free culture medium (protein, UniProt P01133 23-1207, looked up)
Pro-epidermal growth factor: PQHWSCPEGTLAGNGNSTCVGPAPFLIFSHGNSIFRIDTEGTNYEQLVVDAGVSVIMDFHYNEKRIYWVDLERQLLQRVFLNGSRQERVCNIEKNVSGMAINWINEEVIWSNQQEGIITVTDMKGNNSHILLSALKYPANVAVDPVERFIFWSSEVAGSLYRADLDGVGVKALLETSEKITAVSLDVLDKRLFWIQYNREGSNSLICSCDYDGGSVHISKHPTQHNLFAMSLFGDRIFYSTWKMKTIWIANKHTGKDMVRINLHSSFVPLGELKVVHPLAQPKAEDDTWEPEQKLCKLRKGNCSSTVCGQDLQSHLCMCAEGYALSRDRKYCEDVNECAFWNHGCTLGCKNTPGSYYCTCPVGFVLLPDGKRCHQLVSCPRNVSECSHDCVLTSEGPLCFCPEGSVLERDGKTCSGCSSPDNGGCSQLCVPLSPVSWECDCFPGYDLQLDEKSCAASGPQPFLLFANSQDIRHMHFDGTDYGTLLSQQMGMVYALDHDPVENKIYFAHTALKWIERANMDGSQRERLIEEGVDVPEGLAVDWIGRRFYWTDRGKSLIGRSDLNGKRSKIITKENISQPRGIAVHPMAKRLFWTDTGINPRIESSSLQGLGRLVIASSDLIWPSGITIDFLTDKLYWCDAKQSVIEMANLDGSKRRRLTQNDVGHPFAVAVFEDYVWFSDWAMPSVMRVNKRTGKDRVRLQGSMLKPSSLVVVHPLAKPGADPCLYQNGGCEHICKKRLGTAWCSCREGFMKASDGKTCLALDGHQLLAGGEVDLKNQVTPLDILSKTRVSEDNITESQHMLVAEIMVSDQDDCAPVGCSMYARCISEGEDATCQCLKGFAGDGKLCSDIDECEMGVPVCPPASSKCINTEGGYVCRCSEGYQGDGIHCLDIDECQLGEHSCGENASCTNTEGGYTCMCAGRLSEPGLICPDSTPPPHLREDDHHYSVRNSDSECPLSHDGYCLHDGVCMYIEALDKYACNCVVGYIGERCQYRDLKWWELRHAGHGQQQKVIVVAVCVVVLVMLLLLSLWGAHYYRTQKLLSKNPKNPYEESSRDVRSRRPADTEDGMSSCPQPWFVVIKEHQDLKNGGQPVAGEDGQAADGSMQPTSWRQEPQLCGMGTEQGCWIPVSSDKGSCPQVMERSFHMPSYGTQTLEGGVEKPHSLLSANPLWQQRALDPPHQMELTQ
modifications: Pro-epidermal growth factor
amount of extracellular matrix produced, compared among growth factor groups (Human fibroblasts [1]; 10 ng/mL epidermal growth factor added alone, compared with FGF-2, KGF and combinations (Table 3)): highest amount | amount of extracellular matrix produced (Human fibroblasts [1]; factor individually removed from serum-free/xeno-free culture medium (Table 1), compared with medium containing all factors, FIGS. 8 and 9): significantly reduced | laminin concentration (Human fibroblasts [2]): 2.68 µg/mL | total collagen concentration (Human fibroblasts [3]): 56.94 µg/mL

Reference: patent publication US20260286308A1, “COMPOSITION CONTAINING EXTRACELLULAR MATRIX AND MATRIX-BOUND VESICLES FOR PRODUCING EXTRACELLULAR MATRIX AND PREPARATION METHOD THEREFOR” (HLB CELL CO., LTD, priority 2023, published 2026)
